The chains are these.
B1: Histone H1t, residues 44 to 112; numbered along this chain, P22492 (parent)
chain: VSKLITEALSVSQERVGMSLVALKKALAAAGYDVEKNNSRIKLSLKSLVNKGILVQTRGTGASGSFKLS

± gives the uncertainty stated by the source.

The variants in this data set derive from B1. The data set is described as follows: abundance fitness (aPCA) (normalised: wild type 0, dead -1); higher = more abundant; growth selection in yeast, the domain comes from the species named. To be noted: Homo sapiens.
Regarding VSKLITEALSVSQERVGMSLVALKKALAAAGYDVEKNNSRIKLSLKSNVNKGILVQTRGTGASGSFKLS [L48N], the abundance fitness is -0.775 ± 0.094. The figure for VSKLITEALSVSQERVGMSLVALKKALAAAGYDVEKNNSRIKLSLKSQVNKGILVQTRGTGASGSFKLS [L48Q] is -0.643 ± 0.075.

Regarding VSKLITEALSVSQERVGMSLVALKKALAAAGYDVEKNNSRIKLSLKSRVNKGILVQTRGTGASGSFKLS [L48R], the abundance fitness is -0.864 ± 0.1. The figure for VSKLITEALSVSQERVGMSLVALKKALAAAGYDVEKNNSRIKLSLKSYVNKGILVQTRGTGASGSFKLS [L48Y] is -0.624 ± 0.061; for VSKLITEALSVSQERVGMSLVALKKALAAAGYDVEKNNSRIKLSLKSSVNKGILVQTRGTGASGSFKLS [L48S] it is -0.801 ± 0.068; for VSKLITEALSVSQERVGMSLVALKKALAAAGYDVEKNNSRIKLSLKSAVNKGILVQTRGTGASGSFKLS [L48A] it is -0.755 ± 0.084. The figure for VSKLITEALSVSQERVGMSLVALKKALAAAGYDVEKNNSRIKLSLKSVVNKGILVQTRGTGASGSFKLS [L48V] is -0.536 ± 0.087; for VSKLITEALSVSQERVGMSLVALKKALAAAGYDVEKNNSRIKLSLKSKVNKGILVQTRGTGASGSFKLS [L48K] it is -0.939 ± 0.079.

VSKLITEALSVSQERVGMSLVALKKALAAAGYDVEKNNSRIKLSLKSEVNKGILVQTRGTGASGSFKLS [L48E]: the abundance fitness was -0.784 ± 0.18. As for VSKLITEALSVSQERVGMSLVALKKALAAAGYDVEKNNSRIKLSLKSGVNKGILVQTRGTGASGSFKLS [L48G], the abundance fitness was -0.894 ± 0.12. Turning to VSKLITEALSVSQERVGMSLVALKKALAAAGYDVEKNNSRIKLSLKSWVNKGILVQTRGTGASGSFKLS [L48W], the abundance fitness was -0.402 ± 0.15. As for VSKLITEALSVSQERVGMSLVALKKALAAAGYDVEKNNSRIKLSLKSPVNKGILVQTRGTGASGSFKLS [L48P], the figure is -0.873 ± 0.074; as for VSKLITEALSVSQERVGMSLVALKKALAAAGYDVEKNNSRIKLSLKSCVNKGILVQTRGTGASGSFKLS [L48C], -0.589 ± 0.13; as for VSKLITEALSVSQERVGMSLVALKKALAAAGYDVEKNNSRIKLSLKSTVNKGILVQTRGTGASGSFKLS [L48T], -0.592 ± 0.064.

For VSKLITEALSVSQERVGMSLVALKKALAAAGYDVEKNNSRIKLSLKSIVNKGILVQTRGTGASGSFKLS [L48I], the abundance fitness was -0.564 ± 0.059. As for VSKLITEALSVSQERVGMSLVALKKALAAAGYDVEKNNSRIKLSLKSHVNKGILVQTRGTGASGSFKLS [L48H], the figure is -0.979 ± 0.097; as for VSKLITEALSVSQERVGMSLVALKKALAAAGYDVEKNNSRIKLSLKSDVNKGILVQTRGTGASGSFKLS [L48D], -0.405 ± 0.14; as for VSKLITEALSVSQERVGMSLVALKKALAAAGYDVEKNNSRIKLSLKSFVNKGILVQTRGTGASGSFKLS [L48F], -0.404 ± 0.039. As for VSKLITEALSVSQERVGMSLVALKKALAAAGYDVEKNNSRIKLSLKSLVEKGILVQTRGTGASGSFKLS [N50E], the figure is 0.027 ± 0.07; as for VSKLITEALSVSQERVGMSLVALKKALAAAGYDVEKNNSRIKLSLKSLVFKGILVQTRGTGASGSFKLS [N50F], -1.1 ± 0.3; as for VSKLITEALSVSQERVGMSLVALKKALAAAGYDVEKNNSRIKLSLKSLVMKGILVQTRGTGASGSFKLS [N50M], -0.394 ± 0.096. As for VSKLITEALSVSQERVGMSLVALKKALAAAGYDVEKNNSRIKLSLKSLVVKGILVQTRGTGASGSFKLS [N50V], the figure is -0.388 ± 0.046; as for VSKLITEALSVSQERVGMSLVALKKALAAAGYDVEKNNSRIKLSLKSLVHKGILVQTRGTGASGSFKLS [N50H], -0.24 ± 0.11; as for VSKLITEALSVSQERVGMSLVALKKALAAAGYDVEKNNSRIKLSLKSLVAKGILVQTRGTGASGSFKLS [N50A], -0.037 ± 0.036. VSKLITEALSVSQERVGMSLVALKKALAAAGYDVEKNNSRIKLSLKSLVDKGILVQTRGTGASGSFKLS [N50D]: the abundance fitness is -0.105 ± 0.12. With VSKLITEALSVSQERVGMSLVALKKALAAAGYDVEKNNSRIKLSLKSLVKKGILVQTRGTGASGSFKLS [N50K], the abundance fitness was -0.108 ± 0.12. As for VSKLITEALSVSQERVGMSLVALKKALAAAGYDVEKNNSRIKLSLKSLVYKGILVQTRGTGASGSFKLS [N50Y], the figure is -0.092 ± 0.26; as for VSKLITEALSVSQERVGMSLVALKKALAAAGYDVEKNNSRIKLSLKSLVTKGILVQTRGTGASGSFKLS [N50T], 0.018 ± 0.05.

As to VSKLITEALSVSQERVGMSLVALKKALAAAGYDVEKNNSRIKLSLKSLVSKGILVQTRGTGASGSFKLS [N50S], the abundance fitness came to 0.092 ± 0.041. Take VSKLITEALSVSQERVGMSLVALKKALAAAGYDVEKNNSRIKLSLKSLVIKGILVQTRGTGASGSFKLS [N50I]: the abundance fitness was -0.398 ± 0.29. As for VSKLITEALSVSQERVGMSLVALKKALAAAGYDVEKNNSRIKLSLKSLVGKGILVQTRGTGASGSFKLS [N50G], the figure is -0.099 ± 0.04; as for VSKLITEALSVSQERVGMSLVALKKALAAAGYDVEKNNSRIKLSLKSLVCKGILVQTRGTGASGSFKLS [N50C], -0.311 ± 0.096; as for VSKLITEALSVSQERVGMSLVALKKALAAAGYDVEKNNSRIKLSLKSLVRKGILVQTRGTGASGSFKLS [N50R], -0.082 ± 0.038. With VSKLITEALSVSQERVGMSLVALKKALAAAGYDVEKNNSRIKLSLKSLVLKGILVQTRGTGASGSFKLS [N50L], the abundance fitness is -0.312 ± 0.043. As for VSKLITEALSVSQERVGMSLVALKKALAAAGYDVEKNNSRIKLSLKSLVPKGILVQTRGTGASGSFKLS [N50P], the figure is -0.076 ± 0.036; as for VSKLITEALSVSQERVGMSLVALKKALAAAGYDVEKNNSRIKLSLKSLVWKGILVQTRGTGASGSFKLS [N50W], -0.827 ± 0.077. As for VSKLITEALSVSQERVGMSLVALKKALAAAGYDVEKNNSRIKLSLKSLVQKGILVQTRGTGASGSFKLS [N50Q], the figure is 0.066 ± 0.068; as for VSKLITEALSVSQERVGMSLVALKKALAAAGYDVEKNNSRIKLSLKSLVNHGILVQTRGTGASGSFKLS [K51H], -0.289 ± 0.14; as for VSKLITEALSVSQERVGMSLVALKKALAAAGYDVEKNNSRIKLSLKSLVNFGILVQTRGTGASGSFKLS [K51F], -0.557 ± 0.091.

These data come from the Human Domainome abundance scans (Beltran et al. 2025).
